# Source: publication PMC9813358, “Insights into the GSDMB-mediated cellular lysis and its targeting by IpaH7.8” (Nature Communications, 2023)
# B1: IpaH7.8 protein (residues 23–565) [Shigella flexneri] / GSDMB (residues 1-411) [human] (parent complex)
# chain 1: SNEHYLRILTEWEKNSSPGEERGIAFNRLSQCFQNQEAVLNLSDLNLTSLPELPKHISALIVENNKLTSLPKLPAFLKELNADNNRLSVIPELPESLTTLSVRSNQLENLPVLPNHLTSLFVENNRLYNLPALPEKLKFLHVYYNRLTTLPDLPDKLEILCAQRNNLVTFPQFSDRNNIRQKEYYFHFNQITTLPESFSQLDSSYRINISGNPLSTRVLQSLQRLTSSPDYHGPQIYFSMSDGQQNTLHRPLADAVTAWFPENKQSDVSQIWHAFEHEEHANTFSAFLDRLSDTVSARNTSGFREQVAAWLEKLSASAELRQQSFAVAADATESCEDRVALTWNNLRKTLLVHQASEGLFDNDTGALLSLGREMFRLEILEDIARDKVRTLHFVDEIEVYLAFQTMLAEKLQLSTAVKEMRFYGVSGVTANDLRTAEAMVRSREENEFTDWFSLWGPWHAVLKRTEADRWAQAEEQKYEMLENEYSQRVADRLKASGLSGDADAEREAGAQVMRETEQQIYRQLTDEVLALRLSENGSRLHHS
# chain 2: MFSVFEEITRIVVKEMDAGGDMIAVRSLVDADRFRCFHLVGEKRTFFGCRHYTTGLTLMDILDTDGDKWLDELDSGLQGQKAEFQILDNVDSTGELIVRLPKEITISGSFQGFHHQKIKISENRISQQYLATLENRKLKRELPFSFRSINTRENLYLVTETLETVKEETLKSDRQYKFWSQISQGHLSYKHKGQREVTIPPNRVLSYRVKQLVFPNKETMSAGLDIHFRGKTKSFPEGKSLGSEDSRNMKEKLEDMESVLKDLTEEKRKDVLNSLAKCLGKEDIRQDLEQRVSEVLISGELHMEDPDKPLLSSLFNAAGVLVEARAKAILDFLDALLELSEEQQFVAEALEKGTLPLLKDQVKSVMEQNWDELASSPPDMDYDPEARILCALYVVVSILLELAEGPTSVSS
# Variants of: B1
# Test: ITC; parent: 94 nM
row,Variant,Kd
1,chain 1 N124A,0.36 µM
